In US20060177894A1:

What was measured:
[1] = molecular target: rat lutropin receptor (LHR) (rat) (UniProt P16235); assay: cell-based or functional assay
[2] = molecular target: rat lutropin receptor (LHR) (rat) (UniProt P16235); assay: receptor binding assay
[3] = molecular target: rat lutropin receptor (LHR) (rat) (UniProt P16235); assay: inhibition of 125I-hCG binding to CHO cells with rat LHR; from IC50; acid-stable hCGβ-S138C analog

rat lutropin receptor (LHR) (rat), sequence (P16235 27-700): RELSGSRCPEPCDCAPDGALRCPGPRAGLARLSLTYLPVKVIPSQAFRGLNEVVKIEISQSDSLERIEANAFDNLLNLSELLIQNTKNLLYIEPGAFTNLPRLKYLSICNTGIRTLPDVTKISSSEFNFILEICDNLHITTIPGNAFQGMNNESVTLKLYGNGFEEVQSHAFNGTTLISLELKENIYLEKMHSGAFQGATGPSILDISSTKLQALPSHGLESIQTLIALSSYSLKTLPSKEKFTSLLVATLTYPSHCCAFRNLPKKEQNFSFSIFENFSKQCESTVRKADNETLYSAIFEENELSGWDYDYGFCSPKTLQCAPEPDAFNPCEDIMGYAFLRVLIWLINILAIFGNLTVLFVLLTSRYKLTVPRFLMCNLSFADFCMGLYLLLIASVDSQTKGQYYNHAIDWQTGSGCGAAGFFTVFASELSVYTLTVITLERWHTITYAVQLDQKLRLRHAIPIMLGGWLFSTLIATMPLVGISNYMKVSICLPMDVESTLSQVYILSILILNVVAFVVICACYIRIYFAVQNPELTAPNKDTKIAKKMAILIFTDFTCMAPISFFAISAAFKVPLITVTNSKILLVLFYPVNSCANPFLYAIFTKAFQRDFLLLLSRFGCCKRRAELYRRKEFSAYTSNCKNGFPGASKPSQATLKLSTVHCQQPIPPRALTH

signaling assays [1] | activity relative to hCG [2] | Signal transduction potency (cAMP accumulation), acid-stable analog [1] | Receptor-Binding potency (percent hCG) [3] | Substance
50 % of hCG | > 50 % of hCG | – | – | analog containing the entire carboxyterminal residues of the hCG β-subunit attached to the α-subunit (from UniProt P01215 25-116) (ligand)
– | – | 0.18 % of hCG | 2.2 % of hCG | αT86C + hCGβ-S138C (from UniProt P01215 25-116; P0DN86 21-165) (ligand)
– | – | 0.12 % of hCG | 0.05 % of hCG | αY88C + hCGβ-S138C (from UniProt P01215 25-116; P0DN86 21-165) (ligand)
